{"source": "paper PMC7973117", "key": {"[1]": {"molecular_target": "heteropentameric α1β wild type glycine receptor (rat) (UniProt P07727)"}, "[2]": {"molecular_target": "heteropentameric α1β mutated (α1βY240A) glycine receptor (rat) (UniProt P07727)"}}}
{"substance": "Interleukin-1β (from UniProt P01584 117-269) (ligand)", "values": [{"measurement": "current decay time constant (τ) of glycine (50 μM)-activated currents after perfusion of IL-1β (10 ng/ml); whole-cell patch clamp, transfected HEK293T cells (Figure 4A)", "setting": "[1]", "result": 35400, "unit": "ms"}, {"measurement": "current decay time constant (τ) of glycine (50 μM)-activated currents after perfusion of IL-1β (10 ng/ml); whole-cell patch clamp, transfected HEK293T cells (Figure 4A)", "setting": "[2]", "result": 3370, "unit": "ms"}]}
